T1: mouse Nectin-4 (Mus musculus, UniProt Q8R007)
T1 sequence (Q8R007 31-508): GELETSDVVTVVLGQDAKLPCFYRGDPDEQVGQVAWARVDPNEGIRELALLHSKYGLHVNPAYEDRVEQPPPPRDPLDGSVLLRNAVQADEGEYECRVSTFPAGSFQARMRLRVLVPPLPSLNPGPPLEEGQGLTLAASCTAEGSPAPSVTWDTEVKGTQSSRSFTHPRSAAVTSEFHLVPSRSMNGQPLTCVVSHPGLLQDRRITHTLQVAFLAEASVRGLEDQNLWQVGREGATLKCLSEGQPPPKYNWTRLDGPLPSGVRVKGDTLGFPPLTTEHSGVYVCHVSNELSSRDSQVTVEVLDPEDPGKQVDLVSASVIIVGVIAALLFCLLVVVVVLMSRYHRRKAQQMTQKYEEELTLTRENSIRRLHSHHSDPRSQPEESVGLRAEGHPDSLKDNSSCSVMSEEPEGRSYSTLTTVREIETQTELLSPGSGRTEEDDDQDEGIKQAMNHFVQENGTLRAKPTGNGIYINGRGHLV

T2: TIGIT binding to Nectin-4 expressing T24 tumor cells (Homo sapiens, UniProt Q96NY8)
T2 construct: expressed in transfected cells; host or cells: T24 clone, lentiviral transduction
T2 sequence (Q96NY8 32-510): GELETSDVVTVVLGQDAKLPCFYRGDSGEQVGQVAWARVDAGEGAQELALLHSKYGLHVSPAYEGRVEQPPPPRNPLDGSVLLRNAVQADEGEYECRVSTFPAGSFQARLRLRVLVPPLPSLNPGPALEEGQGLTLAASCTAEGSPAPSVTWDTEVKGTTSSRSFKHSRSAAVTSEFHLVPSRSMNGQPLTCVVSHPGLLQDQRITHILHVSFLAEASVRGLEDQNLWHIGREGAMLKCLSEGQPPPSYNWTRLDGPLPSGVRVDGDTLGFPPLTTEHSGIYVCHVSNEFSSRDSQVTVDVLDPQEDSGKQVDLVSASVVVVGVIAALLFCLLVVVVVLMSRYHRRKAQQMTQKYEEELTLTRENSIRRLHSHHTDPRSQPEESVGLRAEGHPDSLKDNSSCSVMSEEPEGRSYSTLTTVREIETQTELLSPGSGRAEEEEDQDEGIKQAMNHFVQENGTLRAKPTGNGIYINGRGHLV


Assays:
mouse Nectin-4 = target: T1, mouse Nectin-4; test: Binding of purified humanized D6C mAbs to mouse Nectin-4; settings: mAb of hzD6C VH with the named VL
Description: The humanized D6C VH region was combined with human IgG1 (SEQ ID NO:18) heavy chain constant region, and each humanized D6C VL region was combined individually with the human kappa light chain constant region (SEQ ID NO:20). The humanized D6C heavy chain (SEQ ID NO:24) was co-transfected with each humanized light chain (SEQ ID NOS:26-31) individually into CHO cells in a 30 mL culture, using the parental chimeric antibody, D6C, as a benchmark. A total of 7 mAbs were generated, purified, and analyzed for titer, purity, and binding.
Analytical size-exclusion chromatography was used to measure the percent purity (% protein of interest, POI), which is preferably 95% or greater. There was a reduction in percent purity seen with the chimeric D6C (84%) and the CDR grafted hzD6C VL (94%). The I2V, N33Q, and G34A mutations in hzD6.1C VL (98%), hzD6.2C VL (95%), and hzD6.3C VL (96%), respectively, as well as the […] N33Q double mutation hzD6.4C VL (99%), resolve the purity issue.

[1] = target: T2, TIGIT binding to Nectin-4 expressing T24 tumor cells; test: Blocking of TIGIT-Fc binding to Nectin-4 expressing T24 tumor cells; type: cell-based; settings: rhTIGIT-Fc 40 nM; antibody at various concentrations from 400 nM, 1:2 dilutions
Description: Anti-Nectin-4 antibody was examined to determine whether it could block binding of TIGIT to Nectin-4 expressing T24 tumor cells. Stable Nectin-4 expression in a T24 clone was achieved by Nectin4-lentiviral transduction. Recombinant human TIGIT-Fc chimera was purchased from R & D Systems. Briefly, cell binding was examined on Nectin-4 expressing T24 cells, which were dispensed into wells of V-bottom 96-well assay plates (1×10^5 cells/well), spun down, and the supernatant discarded. The cells were incubated with an anti-Nectin-4 antibody (hzD6.2C-mIgG2a) or an isotype control (mIgG2a) at eight different concentrations, starting with 400 nM and then 1:2 serial dilution, incubated at 4° C. for 30 min., and then rhTIGIT-Fc was added to each well at a final concentration of 40 nM. The treated cells were incubated at 4° C. for 30 min., washed three times, and then commercial PE anti-human Fc as a secondary antibody (1:200 dilution) was added and incubated at 4° C. for 20 min. The cells were washed twice and analyzed on BD Celesta™ flow cytometry. Percent of inhibition of TIGT (40 nM) binding due to anti-Nectin-4 antibody present was measured.

Molecule | binding to mouse Nectin-4 (mouse Nectin-4) | blocking of TIGIT binding [1]
hzD6.3C VL: "CDR1 mutation to remove a potential deamidation site ... hzD6.3C VL N33Q (position 30c under Kabat), SEQ ID NO:15" (antibody, V domains shown, Synthetic sequence hzD6.3C VL) VL: DIVMTQTPLSLPVTPGEPASISCRSSQSIVHSQGNTYLEWYLQKPGQSPQLLIYKVSNRFSGVPDRFSGSGSGTDFTLKISRVEAEDVGVYYCFQGSHVPYTFGGGTKVEIK | no binding | 
hzD6.4C VL: "a FR1 and a CDR1 mutation (hzD6.4C VL I2V N33Q (positions 2 and 30c under Kabat), SEQ ID NO:16" (antibody, V domains shown, Synthetic sequence hzD6.4C VL) VL: DVVMTQTPLSLPVTPGEPASISCRSSQSIVHSQGNTYLEWYLQKPGQSPQLLIYKVSNRFSGVPDRFSGSGSGTDFTLKISRVEAEDVGVYYCFQGSHVPYTFGGGTKVEIK | no binding | 
hzD6.2C-mIgG2a: "an anti-Nectin-4 antibody (hzD6.2C-mIgG2a)" (antibody, V domains shown) VH: EVQLVESGGGLVQPGGSLRLSCAASGFTFSNYDMSWVRQAPGKGLEWVATISSGGSYTYYVDSVKGRFTISRDNAKNSLYLQMNSLRAEDTAVYYCARQELGSYYAMDYWGQGTTVTVSS VL: DIVMTQTPLSLPVTPGEPASISCRSSQSIVHSNANTYLEWYLQKPGQSPQLLIYKVSNRFSGVPDRFSGSGSGTDFTLKISRVEAEDVGVYYCFQGSHVPYTFGGGTKVEIK |  | more than 70%

Reference: patent publication US12364768B2, “Nectin-4 antibody conjugates and uses thereof” (ARARIS BIOTECH AG, priority 2020, dated 2025)
